Laboratory results: patent US20250152742A1, “COMPOSITIONS AND METHODS FOR NEUROLOGICAL DISEASES” (Trames Bio, Inc., priority 2022, published 2025)
Where two headings read alike, the source gives them in different places.

Key:
[1] = tested on: engineered receptors and wild type nAchRa7 expressed in HEK293T cells; assay: High throughput electrophysiology (IonFlux HT/Mercury automated patch clamp), EC50; format: cell-based, human; conditions: for EC50: ligand TC-5619
Procedure: To confirm the […] determined by plate reader as well as develop a better understanding of maximum current flow, the engineered receptors were subjected to high throughput electrophysiology system, as described below. For HEK293T studies, cDNAs encoding ion channels were cloned into pcDNA3.1 using standard recombination techniques. HEK293T cells from Clontech (Lenti-XTM 293T Cell Line) were cultured in DMEM supplemented with 10% FBS and 1% Pen/Strep to 40-50% confluence using standard cell culture protocols, transfected with ion channel plasmids at a concentration of 18 μg per 15 cm dish using Fugene 6, and grown for an additional 24 hours. Cells were then assayed on an electrophysiological system (IonFluxHT and/or Mercury, Fluxion Biosciences) in which dose-response relationships may be assessed through a microfluidics-based platform for establishing whole cell configurations. Ensemble plates were primed with extracellular buffer (140 mM NaCl, 5 mM KCl, 2 mM CaCl2), 1 mM MgCl2, 10 mM HEPES, and 10 mM glucose, pH 7.2 with NaOH, mOsm 310), intracellular buffer (145 mM CsCl, 2 mM CaCl2, 2 mM MgCl2, 10 mM HEPES, and 10 mM EGTA, pH 7.2 with CsOH, mOsm 305), as adapted from Lynagh and Lynch, and test compounds (stocks prepared fresh) diluted in extracellular buffer. Cells were then released from the plate with Accutase, centrifuged, resuspended in extracellular buffer, and loaded into Ensemble plates. Cells were then subjected to a standard protocol for priming, trapping, breaking, and establishing whole cell configuration, with cells held at −60 mV throughout the recording. After recording baseline, progressive doses of test compounds were applied using the IonFlux software to assess dose response relationships. Data were then analyzed off-line using custom Python scripts to convert data to .csv format, re-plot traces, and apply QC measurements to reject unstable recordings (i.e. thresholding based on access resistance and/or standard deviation in baseline, as well as artifact rejection). Peak currents were then calculated, and population data were fit using a 4-parameter logistic equation as described by the Hill Equation. Currents were measured on an automated patch clamp system (Fluxion Biosciences) following 1 second addition of drug and the EC50 values calculated are tabulated below in Table 22A and Table 22B below and Table 21A and Table 21B above (in Example 2).

[2] = tested on: engineered receptors and wildtype nAchRa7 receptor expressed in HEK293 cells; assay: Whole cell manual patch clamp electrophysiology, EC50, HEK293 cells; format: cell-based, human; conditions: for EC50: ligand TC-5619, HEK293 cell line, read-out: Manual patch clamp based EC50, TC-5619
Procedure: (§1) Using whole cell manual patch clamp electrophysiology in HEK293 cells, rat DRG neurons and rat hippocampal neurons, the EC50 of the various engineered receptors disclosed herein to Ach and non-native ligands was measured using the Hill equation with peak current measurements from escalating doses of ligand. The rheobase shift was also measured in rat DRG neurons, which reflects the efficacy of the receptors. To calculate the rheobase, first, the amount of current that can produce an action potential was determined. Then the ligand was added, followed by a step wise increase in the current injected up to 700 pA.
(§2) For manual patch clamp experiments, Cells plated on coverslips were visualized at 10x and 40x on an inverted fluorescence microscope (Olympus). Recordings were made with an Axopatch 200B amplifier and Digidata 1550B (Molecular Devices) at RT using 3-6 MOhm glass patch electrodes (Sutter, BF150-86-10). Unless otherwise stated, recordings were made in extracellular solution (ECS) containing: 140 mM sodium chloride, 4 mM potassium chloride, 1 mM magnesium chloride, 2 mM calcium chloride, 10 mM HEPES, and 10 mM D-(+)-glucose (pH=7.3 with sodium hydroxide, osmolarity=305-315 mOsm). An 8-line reservoir (AutoMate Scientific) in combination with an 8-channel zero-dead-volume perfusion pencil (AutoMate Scientific) was used for perfusion. Data was acquired using pClamp software (Molecular Devices). Traces were either analyzed in Clampfit (Molecular Devices) or using custom Python code. Plotting and statistics were performed in GraphPad Prism.
For dose-response, ligand-induced currents were recorded in voltage clamp mode. For HEK cell experiments, recordings took place in the normal ECS with a cesium-based internal solution containing: 140 mM cesium chloride, 5 mM potassium fluoride, 2 mM Calcium chloride, 2 mM magnesium chloride, 10 mM HEPES, and 10 mM EGTA (pH=7.2 with cesium hydroxide, osmolarity=290-295 mOsm). For DRG neuron experiments, cells were patched in normal ECS and then switched to an NMDG-based ECS to prevent endogenous cation currents, containing: 145 mM N-methyl-D-glucamine, 4 mM potassium chloride, 0.5 mM magnesium chloride, 0.5 mM calcium chloride, 10 mM HEPES, and 10 mM D-(+)-glucose (pH=7.4 with hydrochloric acid, osmolarity=305-315mOsm). […] Capacitance and series resistance were compensated. Drugs tested include acetycholine chloride and other synthetic compounds. Drug doses were applied for 1-10 sec until the peak of the current was observed, and washes occurred for at least 2 min between dose applications. The holding current was subtracted from the peak to find the current amplitude.
Cell culture: HEK 293 cells were routinely subcultured in DMEM with 10% fetal bovine serum (ThermoFisher Scientific). […]

[3] = tested on: engineered receptors expressed in rat DRG neurons; assay: Manual patch clamp ligand-induced chloride currents / EC50, rat DRG neurons; format: cell-based; conditions: for EC50: ligand TC-5619, Rat DRG Neurons, read-out: Manual patch clamp based EC50, TC-5619
Procedure: as §1, §2
For dose-response, ligand-induced currents were recorded in voltage clamp mode. For HEK cell experiments, recordings took place in the normal ECS with a cesium-based internal solution containing: 140 mM cesium chloride, 5 mM potassium fluoride, 2 mM Calcium chloride, 2 mM magnesium chloride, 10 mM HEPES, and 10 mM EGTA (pH=7.2 with cesium hydroxide, osmolarity=290-295 mOsm). […]

[4] = HEK293 cells and cultured rat DRG sensory neurons
[5] = HEK293 Cell Line, Table 22A, read-out: High-throughput Ephys EC50 (uM) TC-5619
[6] = high throughput electrophysiology, read-out: TC-5619 EC50 (ephys)

Molecule	fold increased potency towards RG-3487 compared to wild type receptor ([1]; ligand RG-3487)	fold reduced potency to acetylcholine compared to wild type receptor ([1]; ligand acetylcholine)	sensitivity to RG-3487 compared to wildtype nAchRa7 receptor [2, 4]	sensitivity to acetylcholine compared to wildtype nAchRa7 receptor [2, 4]	chloride current on application of RG-3487 (SA-2) ([3]; cultured adult rat DRG neurons, not observed in non-transduced cells, FIG. 3)	EC50 [1, 5]	EC50 [1, 6]	EC50 [2]	EC50 [3]
CODA806: engineered receptor: Y115D, L131Q in SEQ ID NO: 33 (Chemogenic receptor-11) (protein, synthetic sequence of chimeric LGIC) MRCSPGGVWLALAASLLHVSLQGEFQRKLYKELVKNYNPLERPVANDSQPLTVYFSLSLLQIMDVDEKNQVLTTNIWLQMSWTDHYLQWNVSEYPGVKTVRFPDGQIWKPDILLDNSADERFDATFHTNVQVNSSGHCQYLPPGIFKSSCPMDLKNFPMDVQTCKLKFGSWSYGGWSLDLQMQEADISGYIPNGEWDLVGIPGKRSERFYECCKEPYPDVTFTVTMRRRMGYYLIQMYIPSLLIVILSWISFWINMDAAPARVGLGITTVLTMTTQSSGSRASLPKVSYVKAIDIWMAVCLLFVFSALLEYAAVNFVSRQHKELLRFRRKRRHHKSPMLNLFQEDEAGEGRFNFSAYGMGPACLQAKDGISVKGANNSNTTNPPPAPSKSPEEMRKLFIQRAKKIDKISRIGFPMAFLIFNMFYWIIYKIVRREDVHNQ	over 10 fold	over 500 fold	way more sensitive to RG-3487	essentially insensitive to acetylcholine	generated chloride current in a dose dependent manner				
COAD1056 (protein, synthetic sequence of chimeric LGIC) MRCSPGGVWLALAASLLHVSLQGEFQRKLYKELVKNYNPLERPVANDSQPLTVYFSLSLLQIMDVDEKNQVLTTNIWLQMSWTDHYLQWNVSEYPGVKTVFFPDGQIWKPDILLENSADERFDATFHTNVLVNSSGHCQYLPPGIFKSSCPMDLKNFPMDVQTCKLKFGSWSYGGWSLDLQMQEADISGYIPNGEWDLVGIPGKRSERFWECCKEPYPDVTFTVTMRRRMGYYLIQMYIPSLLIVILSWISFWINMDAAPARVGLGITTVLTMTTQSSGSRASLPKVSYVKAIDIWMAVCLLFVFSALLEYAAVNFVSRQHKELLRFRRKRRHHKSPMLNLFQEDEAGEGRFNFSAYGMGPACLQAKDGISVKGANNSNTTNPPPAPSKSPEEMRKLFIQRAKKIDKISRIGFPMAFLIFNMFYWIIYKIVRREDVHNQ						0.042 µM	0.0421 µM	96 nM	116 nM
COAD1055 (protein, synthetic sequence of chimeric LGIC) MRCSPGGVWLALAASLLHVSLQGEFQRKLYKELVKNYNPLERPVANDSQPLTVYFSLSLLQIMDVDEKNQVLTTNIWLQMSWTDHYLQWNVSEYPGVKTVWFPDGQIWKPDILLENSADERFDATFHTNVLVNSSGHCQYLPPGIFKSSCPMDLKNFPMDVQTCKLKFGSWSYGGWSLDLQMQEADISGYIPNGEWDLVGIPGKRSERFWECCKEPYPDVTFTVTMRRRMGYYLIQMYIPSLLIVILSWISFWINMDAAPARVGLGITTVLTMTTQSSGSRASLPKVSYVKAIDIWMAVCLLFVFSALLEYAAVNFVSRQHKELLRFRRKRRHHKSPMLNLFQEDEAGEGRFNFSAYGMGPACLQAKDGISVKGANNSNTTNPPPAPSKSPEEMRKLFIQRAKKIDKISRIGFPMAFLIFNMFYWIIYKIVRREDVHNQ						0.0106 µM	0.0106 µM	16 nM	56 nM
